In PMC8767186 one finds reduction of co-precipitation against full-length Kre28 data, which are given here for one substance.

This experiment has as its target Spc105-mCherry (S. cerevisiae) (UniProt P53148). The experiment in a line: co-IP; RFP-Trap beads (Chromotek) on cleared yeast lysates in buffer H 0.15 (25 mM HEPES pH 8.0, 150 mM KCl, 0.1% IGEPAL), overnight; blots with anti-GFP and anti-DsRed; band intensities by ImageJ, normalised to full length, input and Spc105 IP.
Sequence of UniProt P53148 (P53148 whole entry): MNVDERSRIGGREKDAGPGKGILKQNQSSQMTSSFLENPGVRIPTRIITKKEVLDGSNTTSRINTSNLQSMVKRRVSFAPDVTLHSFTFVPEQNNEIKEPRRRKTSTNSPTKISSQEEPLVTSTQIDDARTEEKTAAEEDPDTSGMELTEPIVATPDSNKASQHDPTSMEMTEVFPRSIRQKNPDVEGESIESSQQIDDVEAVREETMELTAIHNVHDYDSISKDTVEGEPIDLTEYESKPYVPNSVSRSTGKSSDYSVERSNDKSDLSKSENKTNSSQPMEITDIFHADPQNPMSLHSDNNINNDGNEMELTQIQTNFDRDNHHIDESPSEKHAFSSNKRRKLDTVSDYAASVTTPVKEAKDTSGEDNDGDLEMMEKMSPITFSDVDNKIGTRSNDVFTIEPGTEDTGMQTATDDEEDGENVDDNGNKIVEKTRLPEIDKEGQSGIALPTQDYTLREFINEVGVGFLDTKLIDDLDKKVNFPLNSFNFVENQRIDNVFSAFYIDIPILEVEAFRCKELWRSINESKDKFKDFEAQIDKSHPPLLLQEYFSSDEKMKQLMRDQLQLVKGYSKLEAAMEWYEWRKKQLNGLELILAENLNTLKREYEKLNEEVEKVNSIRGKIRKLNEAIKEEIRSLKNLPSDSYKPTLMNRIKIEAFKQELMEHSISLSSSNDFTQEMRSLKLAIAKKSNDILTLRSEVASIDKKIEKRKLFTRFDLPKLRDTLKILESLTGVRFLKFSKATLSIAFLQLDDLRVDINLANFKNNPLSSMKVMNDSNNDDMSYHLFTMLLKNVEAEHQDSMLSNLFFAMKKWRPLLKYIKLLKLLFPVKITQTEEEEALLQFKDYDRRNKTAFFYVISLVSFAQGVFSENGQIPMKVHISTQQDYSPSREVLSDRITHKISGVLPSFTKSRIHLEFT

As for “GFP-kre28^Δ127–182 (from UniProt Q04431 1-385) (natural protein)”, the reduction of co-precipitation against full-length Kre28 amounted to 40%.
